Measurements as given in patent EP0723402B1.

Target: cyclin/cdk2 complexes immunoprecipitated from HeLa cell extracts by cdk2 antisera (UniProt P24941)
Experiment: cell-based or functional assay

GST-SDI-1 fusion protein (Schistosoma japonicum glutathione S-transferase amino acids 1-226, hinge Pro-Arg-Gly-Asp-Pro-Pro-Ala, SDI-1)
half maximal inhibition of histone H1 kinase activity: 250 ng
